Key:
[1] = biological target: the molecule itself; test: SAXS; HD2 NPL 1.0-5.0 mg/mL and FKBP39 NPL 1.0-20.0 mg/mL, 50 mM Hepes pH 7.5, 100 mM NaCl, 11 °C, ESRF BioSAXS beamline ID14eh3; FKBP39 modelled with P5, HD2 with P25 symmetry
[2] = biological target: the molecule itself; test: SAXS; Fpr4Δloop, 1.0-4.0 mg/mL, 50 mM Hepes pH 7.5, 100 mM NaCl, 11 °C, beamline X33 (EMBL/DESY Hamburg); P5 symmetry
[3] = biological target: the molecule itself; test: SEC; S200 or S75 120-mL column in 20 mM Tris-HCl pH 8.0, 150 mM (salt not given), 2 mM β-mercaptoethanol; apparent molecular weight
[4] = biological target: the molecule itself; test: SANS; deuterated FKBP39 NPL, 2.0-10.0 mg/mL, 20 mM 4-morpholineethanesulfonic acid pH 6.0, 25 mM NaCl, 20 °C; bead model fitted with 5-fold symmetry

B1: Arabidopsis thaliana type 2 histone deacetylase HD2 NPL domain (HD2a, amino acids 1-112) (domain or fragment, UniProt Q56WH4 1-112, looked up)
chain: MEFWGVAVTPKNATKVTPEEDSLVHISQASLDCTVKSGESVVLSVTVGGAKLVIGTLSQDKFPQISFDLVFDKEFELSHSGTKANVHFIGYKSPNIEQDDFTSSDDEDVPEA
notes: type 2 histone deacetylase (printed as HD2a), Arabidopsis thaliana, amino acids 1-112; also called Arabidopsis NPL construct; A thali; source: E. coli BL21 (DE3), purified; copies: 10
- stoichiometry N [1]: 10

B2: Fpr4 NPLΔloop (S. cerevisiae Fpr4 amino acids 1-168 with the β4-β5 loop deleted) (domain or fragment, Saccharomyces cerevisiae, UniProt Q06205 1-168, looked up)
chain: MSDMLPLATYSLNVEPYSPTPALNFKIPVTIRITMAAIDPEPFDDDKKPSTLRIIKRNEIDDEFEECVLLTLSPKGQYQQALDITIAPEEDVQFVVTGSYTISLTGNYVKHPF
notes: Fpr4, Saccharomyces cerevisiae, amino acids 1-58 joined to 114-168 by overlap deletion PCR; The construct contains a C-terminal unstructured tail seen in the SAXS model; also called Fpr4Δloop; Fpr4 NPL domain; source: E. coli BL21 (DE3), purified
- stoichiometry N [2]: 5

B3: FKBP39 NPL domain (N-terminal nucleoplasmin-like domain of Drosophila FKBP39, residues 1-92) (domain or fragment, Drosophila melanogaster)
chain: QGAMAMFWGLNMKPERKYSQTIIKSFHISGVALDKGQEAKLYLAAEKQEYIVATVTKAIPQVALDLNFSKGDRIMFYTAGDASVSLLGYLHDIDSGS
notes: 3-4 additional amino acids left at the N-terminus after chymotrypsin cleavage, printed as [F]QGA: with or without the leading F; second amino acid changed from Ser to Ala for the NcoI cloning site; dipeptide from the BamHI site at the C-terminus; Deuterated or otherwise isotope-labelled samples were used for SANS and NMR; The structure was deposited at the PDB; also called N-terminal domain of …
- stoichiometry N [3]: ~5
- stoichiometry N [4]: 5
